Here are results for 3 molecules from patent US9120851B2, “Human antibodies to human angiopoietin-like protein 4” (Regeneron Pharmaceuticals, Inc., priority 2009, dated 2015).

Assay [1] concerns the target T1, hANGPTL4 peptide (R34-L66 of SEQ ID NO:476) (Homo sapiens, UniProt Q9BY76).
T1 sequence (Q9BY76 34-66 limits assumed): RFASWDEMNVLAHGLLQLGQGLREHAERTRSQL
The assay is described as follows: BIACORE, hANGPTL4 peptides injected over captured antibody. Type of assay: binding. Conditions: for ka: 62.5 nM-500 nM. On the procedure:
Further, the binding affinities of H1H268P and H1H284P for various ANGPTL3 and ANGPTL4 peptides were also determined by BIACORE™ system. Briefly, H1H268P (1348±11 RU) and H1H284P (868±13 RU) were captured over anti-human Fc surface and various concentrations (62.5 nM-500 nM) of the hANGPTL3 and hANGPTL4 peptides were injected. The peptides tested were hANGPTL4 (R34-L66 of SEQ ID NO:476), N-terminally biotinylated hANGPTL4 (R34-L66 of SEQ ID NO:476), hANGPTL3 (R36-I68 of SEQ ID NO:485), and N-terminally biotinylated hANGPTL3 (R36-I68 of SEQ ID NO:485). Kinetic analysis was performed to measure ka and kd, and KD values and half-life of antigen/antibody complex dissociation were calculated. NB: No binding under the experimental conditions described.

The next assay concerns the target T2, hANGPTL4(26-406)-His (Homo sapiens, UniProt Q9BY76).
T2 construct: purchased R&D Systems
T2 sequence (Q9BY76 26-406): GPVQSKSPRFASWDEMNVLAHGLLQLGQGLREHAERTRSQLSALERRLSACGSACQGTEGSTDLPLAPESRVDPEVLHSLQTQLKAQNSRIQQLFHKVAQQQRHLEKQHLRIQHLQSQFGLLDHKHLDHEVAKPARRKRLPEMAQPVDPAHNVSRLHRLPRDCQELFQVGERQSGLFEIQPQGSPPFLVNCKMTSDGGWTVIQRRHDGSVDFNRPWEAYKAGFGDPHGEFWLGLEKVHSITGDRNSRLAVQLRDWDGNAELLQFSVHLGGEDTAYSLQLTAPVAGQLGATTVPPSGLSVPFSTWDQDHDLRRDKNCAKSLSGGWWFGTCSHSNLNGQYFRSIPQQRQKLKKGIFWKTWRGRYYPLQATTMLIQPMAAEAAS
The experiment in a line: BIACORE, full mAb or Fab over amino-coupled hANGPTL4(26-406)-His. It is filed as binding. Conditions: for RU bound at 50 nM mAb or Fab: amino-coupled 450 RU. On the procedure: (§1) Briefly, various concentrations (3.125 nM-100 nM) of anti-hANGPTL4 antibodies (i.e., H1H268 Fab, entire H1H268 mAb, H1H284 Fab, and entire H1H284 mAb) were injected over a low density anti-mFc captured hANGPTL4(26-148)-mFc (˜68±4 RU) surface, or the surface of amino-coupled hANGPTL4(26-406)-His (R&D Systems) (450 RU) or amino-coupled cynomolgus monkey N-terminal region (amino acid residues 1-130 of SEQ ID NO:490) expressed with an C-terminal hexa-histidine tag (MfANGPTL4(1-130)-His) (1,028 RU). Kinetic analysis was performed to measure ka and kd, and KD values and half-life of antigen/antibody complex dissociation were calculated. The results are shown in Table 4 (H1H268P) and Table 5 (H1H284P).

For another assay, the target named is T3, hANGPTL4(26-148)-mFc (Homo sapiens, UniProt Q9BY76).
T3 construct: amino acid residues 26-148 of human ANGPTL4 fused in-line to mouse IgG2a (hANGPTL4-mFc)
The experiment in a line: BIACORE, full mAb or Fab over anti-mFc captured hANGPTL4(26-148)-mFc. Type of assay: binding.

A further assay deals with humanized ANGPTL4 mice. The experiment in a line: Serum TG levels in humanized ANGPTL4 mice. It is filed as in vivo, mouse. Conditions: for Serum TG: mean±SEM. As to the method: The effect of anti-hANGPTL4 antibodies H1H268P and H1H284P on serum TG levels was determined in mice expressing the ANGPTL4 protein containing the human N-terminal coil-coil region (“humanized ANGPTL4 mice”). The humanized ANGPTL4 mouse was made by replacing first three exons of the mouse Angptl4 gene (the N terminal coil-coil region) with the corresponding human N-terminal coil-coil ANGPLT4 sequence in C57BL6/129 (F1H4) embryonic stem cells. After germ line transmission was established, heterozygous mice (ANGPTL4hum/+) were bred together to generate homozygous mice [ANGPTL4hum/hum or hANGPTL4(+/+)] on a C57BL6 background. Humanized ANGPTL4 mice were pre-bled 7 days before (day −7) the experiment and put into groups of six mice each for each antibody tested. Antibodies (H1H268P, H1H284P and isotype-matched (hIgG1) control with no known cross-reactivity to mouse antigens) were administered at 10 mg/kg dose by subcutaneous injection. Mice were bled after 4 hours of fasting at days 1, 4, 7 and 11 after antibody injection; and serum TG levels were determined by ADVIA® 1800 Chemistry System (Siemens). Average TG levels were calculated for each time point for each antibody.
The effect of anti-hANGPTL4 antibodies, H4H268P2 and H4H284P, on serum TG levels was determined in humanized ANGPTL4 mice. Humanized ANGPTL4 mice were pre-bled 7 days before the experiment and put into groups of six mice each for each antibody tested. Antibodies (H4H268P2, H4H284P and isotype-matched (hIgG4) control with no known cross-reactivity to mouse antigens) were administered at 10 mg/kg dose by subcutaneous injection. Mice were bled after 4 hours of fasting at days 1, 4, 7 and 11 after antibody injection; and TG levels were determined in the serum by ADVIA® 1800 Chemistry System (Siemens). Average TG levels were calculated for each time point for each antibody.

In a further assay the test system is MfANGPTL4(1-130)-His. The experiment in a line: BIACORE, full mAb or Fab over amino-coupled MfANGPTL4(1-130)-His. To be noted: for Response bound at 50 nM mAb or Fab: amino-coupled 1,028 RU. It is filed as binding, cynomolgus monkey. On the procedure: as §1
(In general: SPR reads the build-up and loss of mass on a sensor chip optically.)

Where [2] appears, read: pH 5.75, 25° C., antigen captured 27 ± 0.6 RU.
Where [3] appears, read: pH 7.2, 25° C., antigen captured 35 ± 1.9 RU.
Setting [4] is: day 1 after injection, 10 mg/kg s.c., 4 h fasting.
The mark [5] stands for this setting: day 4 after injection, 10 mg/kg s.c., 4 h fasting.
Setting [6] is: day 7 after injection, 10 mg/kg s.c., 4 h fasting.
Where [7] appears, read: day 11 after injection, 10 mg/kg s.c., 4 h fasting.
Setting [8] is: hANGPTL4 peptide (not biotinylated).

T3 sequence (Q9BY76 with tags, fused parts or gaps): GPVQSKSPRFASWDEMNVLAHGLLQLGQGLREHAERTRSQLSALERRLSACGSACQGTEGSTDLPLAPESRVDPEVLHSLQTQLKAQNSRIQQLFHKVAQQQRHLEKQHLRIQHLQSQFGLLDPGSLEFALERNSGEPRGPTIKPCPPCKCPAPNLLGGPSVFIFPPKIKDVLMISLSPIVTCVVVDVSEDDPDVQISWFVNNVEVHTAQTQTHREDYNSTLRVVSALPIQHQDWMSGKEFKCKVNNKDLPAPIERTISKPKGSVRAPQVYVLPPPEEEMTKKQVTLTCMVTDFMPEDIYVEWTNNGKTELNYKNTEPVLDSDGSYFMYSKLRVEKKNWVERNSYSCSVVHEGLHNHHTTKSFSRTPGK
Chain of MfANGPTL4(1-130)-His (as listed by the source): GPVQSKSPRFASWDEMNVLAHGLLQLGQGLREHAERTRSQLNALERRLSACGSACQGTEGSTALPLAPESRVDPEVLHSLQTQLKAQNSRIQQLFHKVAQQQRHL

B1: H1H284P: anti-hANGPTL4 antibody, hIgG1 isotype, HCVR/LCVR SEQ ID NOs 90/92 (antibody, V domains shown)
VH: QVQLVESGGGVVQPGRSLRLSCAASGFTFSSYGMHWVRQAPGKGLEWMAVISFDGGNKNNADSVKGRFTISRDNSKNTLYLQMNSLRAEDTAVYYCAKEGDRSGHPYFYYYGLDVWGQGTTVTVS
VL: DIQLTQSPSFLSASVGDRVTITCWASQGISSYLAWYQQKPGKAPKLLIYAASTLQSGVPSRFSGSGSETEFTLTISSLQPEDFATYYCQQLHSYPLTFGGGTKVEIK
On to B1, for which the “binding to the hANGPTL4 peptides, in words” value in assay [1] (both peptides, highest peptide concentration tested 500 nM) is listed as “did not bind”. In addition, the ka with hANGPTL4(26-406)-His (pH 5.75, 25° C.) stood at 1.93e+06 M⁻¹ s⁻¹; in the assay with hANGPTL4(26-406)-His (pH 7.2, 25° C.), 850000 M⁻¹ s⁻¹; in the assay on MfANGPTL4(1-130)-His (pH 5.75, 25° C.), 1.55e+06 M⁻¹ s⁻¹; in the assay on MfANGPTL4(1-130)-His (pH 7.2, 25° C.), 467000 M⁻¹ s⁻¹. The kd with hANGPTL4(26-406)-His (pH 5.75, 25° C.) stood at 0.000272 s⁻¹; in the assay with hANGPTL4(26-406)-His (pH 7.2, 25° C.) it was 8.85e-05 s⁻¹; at MfANGPTL4(1-130)-His (pH 5.75, 25° C.), 8.42e-05 s⁻¹; on MfANGPTL4(1-130)-His (pH 7.2, 25° C.) it was 5.83e-05 s⁻¹. Besides, the “RU bound at 50 nM mAb or Fab” value with hANGPTL4(26-406)-His (pH 5.75, 25° C.) is 101; with hANGPTL4(26-406)-His (pH 7.2, 25° C.), 77. In addition, the “Response bound at 50 nM mAb or Fab (RU)” value with hANGPTL4(26-148)-mFc (setting [2]) turned out to be 171; in the assay with hANGPTL4(26-148)-mFc (setting [3]) it was 99. The “Serum TG” value is 125 ± 18 mg/dL in the assay on humanized ANGPTL4 mice (setting [4]); 67 ± 9.8 mg/dL in the assay on humanized ANGPTL4 mice (setting [5]); 91 ± 7.2 mg/dL in the assay on humanized ANGPTL4 mice (setting [6]); 109 ± 11 mg/dL in the assay with humanized ANGPTL4 mice (setting [7]); 113 ± 11 mg/dL in the assay on humanized ANGPTL4 mice (day −7 (pre-bleed)). The “TG levels relative to control, in words” value in the assay with humanized ANGPTL4 mice (day 11 after injection, 10 mg/kg s.c.) is reported as “increased back to control level”. Moreover, the “Response bound at 50 nM mAb or Fab” value in the assay on MfANGPTL4(1-130)-His (pH 5.75, 25° C.) amounted to 804; in the assay on MfANGPTL4(1-130)-His (pH 7.2, 25° C.), 414.

B2: H1H268P: anti-hANGPTL4 antibody, hIgG1 isotype, HCVR/LCVR SEQ ID NOs 42/44 (antibody, V domains shown)
VH: QVQLQESGAGLLKPSETLSLTCTVYGGSFSIHHWTWIRHPPGKGLEWIGEINHRGSTNYNPSLKSRVTISIDTSKNQFSLKLSAVTAADTAVYYCARGLRFLDWLSSYFDYWGQGTLVTVSS
VL: DIQMTQSPSSLSASVGDRVTITCRASQGISDYLAWYQQKPGKVPNLLIYAASALQSGVPSRFSGSGSGTDFTLTISSLQPEDVATYYCQNYNTAPLTFGGGTKVEIK
On to B2, for which the kd in assay [1] (hANGPTL4-Nterm biotin peptide) was determined as 0.000294 s⁻¹; in assay [1] (setting [8]), 0.000365 s⁻¹; with hANGPTL4(26-406)-His (pH 5.75, 25° C.) it was 0.000446 s⁻¹; with hANGPTL4(26-406)-His (pH 7.2, 25° C.) it was 0.0002 s⁻¹; at MfANGPTL4(1-130)-His (pH 5.75, 25° C.) it was 8.24e-05 s⁻¹; at MfANGPTL4(1-130)-His (pH 7.2, 25° C.) it was 4.76e-05 s⁻¹. The ka is 4530 M⁻¹ s⁻¹ in assay [1] (hANGPTL4-Nterm biotin peptide); 6490 M⁻¹ s⁻¹ in assay [1] (setting [8]); 923000 M⁻¹ s⁻¹ with hANGPTL4(26-406)-His (pH 5.75, 25° C.); 489000 M⁻¹ s⁻¹ in the assay with hANGPTL4(26-406)-His (pH 7.2, 25° C.); 107000 M⁻¹ s⁻¹ in the assay with MfANGPTL4(1-130)-His (pH 5.75, 25° C.); 392000 M⁻¹ s⁻¹ in the assay with MfANGPTL4(1-130)-His (pH 7.2, 25° C.). The “RU bound at 50 nM mAb or Fab” value in the assay with hANGPTL4(26-406)-His (pH 5.75, 25° C.) is 45; with hANGPTL4(26-406)-His (pH 7.2, 25° C.), 38. For the same molecule, the “Response bound at 50 nM mAb or Fab (RU)” value in the assay with hANGPTL4(26-148)-mFc (setting [2]) turned out to be 77; with hANGPTL4(26-148)-mFc (setting [3]), 40. The “reduction in circulating TG compared to isotype-matched control antibody” value with humanized ANGPTL4 mice (4-11 days after administration, 10 mg/kg s.c.) was 25-30%. Also, the “Serum TG” value in the assay on humanized ANGPTL4 mice (setting [4]) came out at 129.8 ± 5.6 mg/dL; in the assay with humanized ANGPTL4 mice (setting [5]), 73.3 ± 8.9 mg/dL; in the assay on humanized ANGPTL4 mice (setting [6]) it was 83 ± 14 mg/dL; in the assay with humanized ANGPTL4 mice (day −7 (pre-bleed)), 112 ± 9.3 mg/dL. Moreover, the “Response bound at 50 nM mAb or Fab” value in the assay on MfANGPTL4(1-130)-His (pH 5.75, 25° C.) worked out at 583; in the assay with MfANGPTL4(1-130)-His (pH 7.2, 25° C.), 279.

B3: H4H268P2: IgG4 version of H1H268P with a single amino acid substitution in framework region 1, HCVR/LCVR SEQ ID NOs 487/44 (antibody, V domains shown)
VH: QVQLQQSGAGLLKPSETLSLTCTVYGGSFSIHHWTWIRHPPGKGLEWIGEINHRGSTNYNPSLKSRVTISIDTSKNQFSLKLSAVTAADTAVYYCARGLRFLDWLSSYFDYWGQGTLVTVSS
VL: DIQMTQSPSSLSASVGDRVTITCRASQGISDYLAWYQQKPGKVPNLLIYAASALQSGVPSRFSGSGSGTDFTLTISSLQPEDVATYYCQNYNTAPLTFGGGTKVEIK
modifications: IgG4 constant region
Regarding B3, the “reduction in circulating TG compared to isotype-matched control antibody, in words” value is given as “significant reduction” in the assay with humanized ANGPTL4 mice (day 1, 10 mg/kg s.c.) and “significant reduction” in the assay with humanized ANGPTL4 mice (day 4, 10 mg/kg s.c.). Besides, the “Serum TG” value in the assay with humanized ANGPTL4 mice (setting [4]) turned out to be 81 ± 6.8 mg/dL; in the assay with humanized ANGPTL4 mice (setting [5]) it was 67 ± 5.3 mg/dL; in the assay on humanized ANGPTL4 mice (setting [6]), 56 ± 7.1 mg/dL; in the assay on humanized ANGPTL4 mice (setting [7]), 87 ± 8.7 mg/dL; in the assay on humanized ANGPTL4 mice (day −7 (pre-bleed)), 101 ± 9.3 mg/dL.
